The assay has as its target His-tagged human GFRAL (recombinant soluble GFRAL protein, R&D catalogue no. 9647-GR-050) (human) (UniProt Q6UXV0). The assay can be described thus: SPR sandwich assay: row antibody captured via anti-Fc, GFRAL antigen added, then mAbQ injected as analyte (competitor: mAb Q).

Chain of His-tagged human GFRAL (recombinant soluble GFRAL protein, R&D catalogue no. 9647-GR-050) (human) (Q6UXV0 19-351): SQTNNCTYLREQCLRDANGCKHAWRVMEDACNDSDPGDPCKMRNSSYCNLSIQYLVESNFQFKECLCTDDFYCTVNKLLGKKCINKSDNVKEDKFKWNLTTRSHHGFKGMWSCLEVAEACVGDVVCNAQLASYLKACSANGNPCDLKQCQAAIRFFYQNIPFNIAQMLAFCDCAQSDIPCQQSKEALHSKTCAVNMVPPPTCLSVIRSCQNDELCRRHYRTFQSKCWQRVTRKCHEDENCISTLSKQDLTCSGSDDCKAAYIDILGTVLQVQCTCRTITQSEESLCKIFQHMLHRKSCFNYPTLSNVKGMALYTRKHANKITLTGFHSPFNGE

For the substance IgG4PE (negative control) (antibody), the resonance units after mAbQ injection (resonance units) turned out to be 4.

For the origin of these results see US20240182585A1.
